1 substance from US20240239878A1 can be followed below.

Assay [1] has as its target human DLL3 on SHP-77 cells (human) (UniProt Q9NYJ7). The assay is described as follows: flow cytometry, SHP-77 cells.
In assay [2] the target is Cynomolgus monkey DLL3 on HEK293 cells (HEK293-cyno DLL3) (Cynomolgus monkey). Kind of assay: flow cytometry, HEK293-cyno DLL3 cells.
Cynomolgus monkey DLL3 on HEK293 cells (HEK293-cyno DLL3) (Cynomolgus monkey), sequence (Q9NYJ7 other isoform, or with tags, fused parts or gaps): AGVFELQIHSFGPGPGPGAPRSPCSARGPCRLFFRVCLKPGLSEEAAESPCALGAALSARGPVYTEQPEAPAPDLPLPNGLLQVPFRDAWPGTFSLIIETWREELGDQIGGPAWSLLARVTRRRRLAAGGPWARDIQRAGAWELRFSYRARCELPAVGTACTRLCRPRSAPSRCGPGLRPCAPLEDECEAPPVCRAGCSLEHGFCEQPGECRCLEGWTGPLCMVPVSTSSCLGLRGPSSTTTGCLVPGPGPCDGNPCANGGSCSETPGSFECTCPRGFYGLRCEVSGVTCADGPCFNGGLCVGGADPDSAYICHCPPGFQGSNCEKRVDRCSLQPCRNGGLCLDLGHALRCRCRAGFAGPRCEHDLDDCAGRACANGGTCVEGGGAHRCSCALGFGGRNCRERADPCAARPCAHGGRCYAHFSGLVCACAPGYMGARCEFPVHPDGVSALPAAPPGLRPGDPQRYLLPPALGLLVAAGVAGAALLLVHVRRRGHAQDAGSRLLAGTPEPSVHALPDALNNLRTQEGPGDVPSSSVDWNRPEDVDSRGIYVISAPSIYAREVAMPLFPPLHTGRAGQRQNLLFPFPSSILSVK

human DLL3 on SHP-77 cells (human), sequence (Q9NYJ7 27-618): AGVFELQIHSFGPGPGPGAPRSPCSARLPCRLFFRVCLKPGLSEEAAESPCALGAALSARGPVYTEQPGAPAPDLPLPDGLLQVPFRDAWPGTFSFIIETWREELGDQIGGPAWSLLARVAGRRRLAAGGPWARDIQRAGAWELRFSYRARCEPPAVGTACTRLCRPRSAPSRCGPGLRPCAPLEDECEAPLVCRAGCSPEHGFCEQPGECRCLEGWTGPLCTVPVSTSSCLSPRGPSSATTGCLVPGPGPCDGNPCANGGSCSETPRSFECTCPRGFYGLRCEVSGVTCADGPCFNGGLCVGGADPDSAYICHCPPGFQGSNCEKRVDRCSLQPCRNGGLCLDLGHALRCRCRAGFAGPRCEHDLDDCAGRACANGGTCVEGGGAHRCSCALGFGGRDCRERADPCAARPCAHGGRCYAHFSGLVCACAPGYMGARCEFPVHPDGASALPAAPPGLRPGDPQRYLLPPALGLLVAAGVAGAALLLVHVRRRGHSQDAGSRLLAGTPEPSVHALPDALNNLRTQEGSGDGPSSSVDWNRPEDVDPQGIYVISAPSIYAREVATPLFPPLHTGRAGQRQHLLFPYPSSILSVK

In the case of Negative control antibody, the figures for the Top MFI in assay [1] and in assay [2] were 92 MFI and 104 MFI, respectively.
